Legend:
[1] = target: T1, Human CTLA-4/CD152 Protein (His Tag), Biotinylated (human, UniProt P16410 36-161, biotinylated (site not stated)); assay: multi-cycle kinetics on OCTET, antibody captured on Protein A, CTLA-4 diluted 2-fold from 33 nM over 7 points
T1 construct: Bought recombinant protein; also called 人CTLA-4蛋白; 抗原; not shown: His tag
T1 sequence (looked up): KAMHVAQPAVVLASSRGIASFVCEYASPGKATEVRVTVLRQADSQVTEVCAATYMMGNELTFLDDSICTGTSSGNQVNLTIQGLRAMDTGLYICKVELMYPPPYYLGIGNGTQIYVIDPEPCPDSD

[2] = target: 小鼠CTLA4/CD152蛋白(His标签) (mouse) (UniProt P09793); assay: ELISA, mouse CTLA-4 coated, anti-human Fc HRP detection
Chain of UniProt P09793 (P09793 36-161 limits assumed): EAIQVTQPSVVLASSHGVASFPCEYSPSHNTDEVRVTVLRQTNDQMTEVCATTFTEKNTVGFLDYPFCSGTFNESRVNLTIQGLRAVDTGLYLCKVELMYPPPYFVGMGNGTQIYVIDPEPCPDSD

- Kd [1]: 1 pM
- antibody concentration at which binding is still not saturated [2]: > 8 ng/µL
B1: IgG1-6E2-CTLA-4 (antibody, V domains shown)
VH: QVQLVQSGAEVKKPGSSVKVSCKASGGTFSSYGISWVRQAPGQGLEWMGGIIPIFETSESAQKFQGRVTFTADKSSSTGYMELSSLRSEDTAIYYCARDPLHRSSSGTYYHYFMDVWGQGTMVTVSS
VL: QAVLTQPSSLSASPGASVSLTCTLRSGINVGAYRIYWYQQKPGSPPQFLLRYKSDSDKEQGRGVPSRFSGSKDASANAGILLISGLQSEDEADYYCMIWHNNAVFFGGGTKLTVLG
notes: also called 抗CTLA-4全人源单克隆抗体

From patent CN108003238A (VELOX PHARMACEUTICALS INC, dated 2018)
